Data on one substance can be found in publication PMC11143692.

The assay deals with Flag-eIF4E tagged with homotetrameric tag 6 (HOTag6), the eIF4E part of TORSEL (UniProt P06730).
UniProt P06730, sequence (P06730 whole entry): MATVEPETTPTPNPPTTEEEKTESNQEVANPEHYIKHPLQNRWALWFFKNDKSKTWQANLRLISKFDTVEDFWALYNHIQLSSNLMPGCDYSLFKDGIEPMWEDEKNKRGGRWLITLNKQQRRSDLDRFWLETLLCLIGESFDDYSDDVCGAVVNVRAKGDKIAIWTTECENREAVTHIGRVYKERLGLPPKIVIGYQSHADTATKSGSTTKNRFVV

“HA-tagged 4EBP1 tagged with mCherry and homohexameric tag 3 (HOTag3), the 4EBP1 part of TORSEL (from UniProt Q13541 1-118) (natural protein)”: the TORSEL fluorescent puncta in living U2OS cells when mTORC1 is suppressed by serum deprivation, EAA starvation or rapamycin; diffuse under normal culture conditions; 50-90% of cells with visible puncta was 50 to 90 % of cells.
